B1: 368_D01 (antibody, V domains shown)
VH: EVQLLESGGGLVQPGGSLRLSCAASGFTFSSYGMHWVRQAPGKGLEWVANINYNGGYTSYADSVKGRFTISRDNSKNTLYLQMNSLRAEDTAVYYCARSANWHDTALDYWGQGTLVTVSS
VL: DIQMTQSPSSLSASVGDRVTITCRASQSILSYLNWYQQKPGKAPKLVIYAATSRASGVPSRFSGSGSGTDFTLTISSLQPEDFATYYCQQSDSTPLTFGGGTKVEIK
B2: 369_F01 (antibody, V domains shown)
VH: B1 VH with H35N, A49S, N50G, T58K
VL: B1 VL with S31T, L33V, V47L, D92Y, S93E, T94L
B3: 369_F06 (antibody, V domains shown)
VH: B1 VH with S30D, S31D, G33S, H35N, N50G, T58K, S59G
VL: B1 VL with L30V, L33V, D92Y, S93D, T94S
B4: 368_E07 (antibody, V domains shown)
VH: B1 VH with H35N, N50G, R98K
VL: B1 VL with V47L, A51V, D92Y, S93E, T94N
B5: 368_D05 (antibody, V domains shown)
VH: B1 VH with G33S, H35N, A49S, N50G
VL: B1 VL with S31T, S93D, T94S
B6: 369_E11 (antibody, V domains shown)
VH: B1 VH with H35N, A49S
VL: B1 VL with L30I, V47L, R54L, D92Y, S93D
B7: 368_F11 (antibody, V domains shown)
VH: B1 VH with S31D, H35N, A49S, N50G, A106H
VL: B1 VL with L30V, L33V, D92Y, S93N, T94N
B8: 368_H04 (antibody, V domains shown)
VH: B1 VH with G33S, H35N, N50G, G55S, T58K, S59G, R98K, A106H
VL: B1 VL with L30V, L33V, V47L, D92Y, S93D, T94S
B9: 368_E06 (antibody, V domains shown)
VH: B1 VH with S31D, A49S, N50G, S59G
VL: B1 VL with A50G, D92Y, S93D, T94S
B10: 369_D12 (antibody, V domains shown)
VH: B1 VH with S30D, G33S, H35N, N50G, G55S
VL: B1 VL with V47L, R54L, D92Y, S93D
B11: 369_F03 (antibody, V domains shown)
VH: B1 VH with S31D, H35N, A49S, N50G, G55S
VL: B1 VL with L30V, L33V, V47L, R54L, D92Y, S93D, T94S
B12: 368_G01 (antibody, V domains shown)
VH: B1 VH with S31D, N50S, G55S
VL: B1 VL with S31T, D92Y, S93N, T94L
B13: 369_E12 (antibody, V domains shown)
VH: B1 VH with N50S, G55S
VL: B1 VL with L30I, V47L, D92Y, S93E, T94S
B14: 368_E01 (antibody, V domains shown)
VH: B1 VH with G33S, H35N, N50S, G55S, S59G, A106H
VL: B1 VL with V47L, A51V, A55H, D92Y, T94L
B15: 369_C03 (antibody, V domains shown)
VH: B1 VH with H35N, A49S, T58K
VL: B1 VL with S31T, D92Y, S93D, T94S
B16: 369_A02 (antibody, V domains shown)
VH: B1 VH with G33S, H35N, N50G, G55S, S59G, A106H
VL: B1 VL with L33V, V47L, D92Y, S93D, T94L
B17: 368_D11 (antibody, V domains shown)
VH: B1 VH with S30D, S31D, H35N, A49S, T58K
VL: B1 VL with S31T, D92Y, S93D, T94L
B18: 369_E02 (antibody, V domains shown)
VH: B1 VH with S30D, H35N, A49S, S59G
VL: B1 VL with L30V, L33V, V47L, A51T, A55H, D92Y, S93D, T94N
B19: 369_D04 (antibody, V domains shown)
VH: B1 VH with S30D, H35N, A49S, N50G
VL: B1 VL with L33V, D92Y, S93N, T94L
B20: 369_C02 (antibody, V domains shown)
VH: B1 VH with S30D, G33S, H35N, A49S, T58K
VL: B1 VL with S31T, D92Y, S93E, T94L
B21: 369_C04 (antibody, V domains shown)
VH: B1 VH with G33S, H35N, A49S, S59G
VL: B1 VL with S31T, L33V, V47L, A50T, A51T, R54L, A55H, D92Y, S93N, T94N
B22: 369_B01 (antibody, V domains shown)
VH: B1 VH with G33S, H35N, A49S, N50G
VL: B1 VL with V47L, A51V, D92Y, S93E, T94N
B23: 368_E04 (antibody, V domains shown)
VH: B1 VH with G33S, H35N, G55S, S59G
VL: B1 VL with L33V, V47L, A55H, D92Y, S93D, T94N
B24: 368_D04 (antibody, V domains shown)
VH: B1 VH with H35N, A49S, N50G, T58K
VL: B1 VL with L30S, S31T, L33V, A51V, A55H, D92Y, S93D, T94S
B25: 369_D02 (antibody, V domains shown)
VH: B1 VH with S31D, G33S, H35N, A49S, G55S, S59G
VL: B1 VL with A51V, D92Y, S93D
B26: 369_F02 (antibody, V domains shown)
VH: B1 VH with H35N, N50S, G55S, T58K
VL: B1 VL with L30V, D92Y, S93D
B27: 369_F10 (antibody, V domains shown)
VH: B1 VH with S30D, H35N, A49S, G55S, T58K
VL: B1 VL with L30V, S31T, V47L, A51V, D92Y, S93D, T94L
B28: 369_D01 (antibody, V domains shown)
VH: B1 VH with S31D, H35N, N50S, S59G
VL: B1 VL with S31T, V47L, D92Y, T94N
B29: 368_F03 (antibody, V domains shown)
VH: B1 VH with S30D, G33S, H35N, N50G, G55S, S59G, R98K
VL: B1 VL with L30I, A55H, D92Y, S93D, T94S
B30: 368_E02 (antibody, V domains shown)
VH: B1 VH with S30D, G33S, H35N, N50G, G55S, A106H
VL: B1 VL with S31T, V47L, D92Y, T94S
B31: 368_G12 (antibody, V domains shown)
VH: B1 VH with H35N, N50S, G55S, S59G
VL: B1 VL with L30S, L33V, A51V, D92Y, S93E

Numbering of substitutions follows the chain as printed.
Further: test concentration or dose not given here.

T2 sequence (P27037 20-135 limits assumed): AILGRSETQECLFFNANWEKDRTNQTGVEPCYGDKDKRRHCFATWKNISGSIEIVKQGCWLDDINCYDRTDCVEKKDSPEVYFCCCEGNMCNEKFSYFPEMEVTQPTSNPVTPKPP

One assay has as its target T1, Goat anti-Human Kappa.
T1 construct: Positive control of the ELISA; also called biotinylated goat anti-human kappa light chain
The assay can be described thus: ELISA, positive control. An outline of the steps: (§1)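 Monoclonal antibodies were first applied to human or mouse ACVR2A, alongside biotinylated goat anti-human kappa light chain (positive control) and human Fc (negative control); binding was then determined by ELISA.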
B1: the optical density is 3.65 OD.
In turn, B2 yielded an optical density of 3.47 OD.
The same measure, in the same setting: with B3 the figure was 3.51 OD.
Still for that read-out and setting: to B4 belongs 3.45 OD.
The same measure, in the same setting: with B5 the figure was 3.38 OD.
In turn, B6 came in with an optical density of 3.69 OD.
Turning to B7, the optical density is 3.53 OD.
Same read-out and setting: with B8 the figure was 3.51 OD; with B9, 3.5 OD; with B10, 3.53 OD.
In the case of B11, the optical density was found to be 3.44 OD.
As for B12, the optical density is 3.62 OD.
The same measure, in the same setting: to B13 belongs 3.67 OD; to B14, 3.74 OD.
The molecule B15 showed an optical density of 3.52 OD.
Same read-out and setting: to B16 belongs 3.49 OD.
The molecule B17 displayed an optical density of 3.49 OD.
For the molecule B18, the optical density came out at 3.43 OD.
The same measure, in the same setting: to B19 belongs 3.59 OD; to B20, 3.54 OD; to B21, 2.46 OD.
For B22, the optical density is 3.59 OD.
On the same count and under the same terms, with B23 the figure was 3.48 OD; with B24, 3.67 OD; with B25, 3.53 OD.
B26: the optical density turned out to be 3.56 OD.
The same measure, in the same setting: to B27 belongs 3.67 OD.
Same read-out and setting: to B28 belongs 3.63 OD.
On the same count and under the same terms, to B29 belongs 3.6 OD; to B30, 3.68 OD.
Turning to B31, the optical density came out at 3.52 OD.

The target in the next assay is Mouse ACVR2A (mouse, UniProt P27038 20-135, limits assumed). Kind of assay: ELISA. Put shortly: as §1
Mouse ACVR2A, sequence (P27038 20-135 limits assumed): as the sequence (P27037 20-135 limits assumed) above, with K20R, V73I counted along it
In the case of B1, the optical density is 2.97 OD.
Molecule B2 came in with an optical density of 3.42 OD.
B3 returned an optical density of 3.07 OD.
As to B4, the optical density turned out to be 1.17 OD.
As to B5, the optical density stood at 2.87 OD.
Still for that read-out and setting: with B6 the figure was 3.2 OD; with B7, 2.73 OD.
As to B8, the optical density was 1.36 OD.
Regarding B9, the optical density came out at 2.34 OD.
B10 had an optical density of 3.1 OD.
With B11, the optical density is 2.75 OD.
In the case of B12, the optical density came out at 2.82 OD.
In turn, B13 registered an optical density of 2.69 OD.
Still for that read-out and setting: to B14 belongs 2.85 OD.
On the same count and under the same terms, to B15 belongs 3.65 OD; to B16, 3.46 OD.
For the molecule B17, the optical density came out at 2.96 OD.
Still for that read-out and setting: to B18 belongs 2.34 OD.
As for B19, the optical density is 2.97 OD.
Same read-out and setting: to B20 belongs 3.52 OD; to B21, 1.65 OD; to B22, 3.46 OD.
B23 returned an optical density of 3.23 OD.
As for B24, the optical density amounted to 2.7 OD.
B25: the optical density worked out at 3.44 OD.
Molecule B26 gave an optical density of 3.35 OD.
Still for that read-out and setting: to B27 belongs 3.23 OD; to B28, 3.32 OD.
B29 yielded an optical density of 2.6 OD.
Same read-out and setting: with B30 the figure was 2.79 OD.
Still for that read-out and setting: to B31 belongs 2.54 OD.

The next assay has as its target T2, Human ACVR2A (human, UniProt P27037 20-135, limits assumed).
T2 construct: also called activin receptor, type II A
The assay can be described thus: ELISA. An outline of the steps:
as §1
Molecule B1 displayed an optical density of 2.75 OD.
In the case of B2, the optical density is 3.28 OD.
In turn, B3 gave an optical density of 3.11 OD.
The same measure, in the same setting: with B4 the figure was 1.07 OD; with B5, 2.86 OD.
For the molecule B6, the optical density is 2.89 OD.
As to B7, the optical density worked out at 2.58 OD.
The molecule B8 gave an optical density of 1.06 OD.
The same measure, in the same setting: to B9 belongs 2.33 OD; to B10, 3.04 OD.
Same read-out and setting: with B11 the figure was 2.58 OD.
On the same count and under the same terms, to B12 belongs 2.65 OD; to B13, 2.46 OD; to B14, 2.57 OD.
Consider B15, for which the optical density amounted to 3.37 OD.
In turn, B16 showed an optical density of 3.15 OD.
With B17, the optical density is 2.8 OD.
In turn, B18 showed an optical density of 2.14 OD.
On the same count and under the same terms, with B19 the figure was 3.05 OD; with B20, 3.6 OD; with B21, 1.64 OD.
Still for that read-out and setting: to B22 belongs 3.36 OD; to B23, 3.08 OD; to B24, 2.46 OD.
Turning to B25, the optical density came out at 3.29 OD.
The molecule B26 had an optical density of 3.07 OD.
Molecule B27 yielded an optical density of 3.05 OD.
Still for that read-out and setting: to B28 belongs 3.13 OD; to B29, 2.35 OD.
The same measure, in the same setting: with B30 the figure was 2.5 OD; with B31, 2.46 OD.
